Holding throughout (assay): pull-down
Assay [1] concerns the target T1, GST-AP-1 core, wild type (murine | human, UniProt P22892 1-595; Q10567 1-584; Q96PC3 1-154; P35585 1-423).
For assay [2], the target named is T1, GST-AP-1 core, wild type. The source holds these as a separate data set.
For assay [3], the target named is T1, GST-AP-1 core, wild type. This is another data set of the same source.

Results on three molecules are retold here after publication PMC3913725 (Cell, 2013).

T1 sequence (P22892 1-595, chain 1 of 4): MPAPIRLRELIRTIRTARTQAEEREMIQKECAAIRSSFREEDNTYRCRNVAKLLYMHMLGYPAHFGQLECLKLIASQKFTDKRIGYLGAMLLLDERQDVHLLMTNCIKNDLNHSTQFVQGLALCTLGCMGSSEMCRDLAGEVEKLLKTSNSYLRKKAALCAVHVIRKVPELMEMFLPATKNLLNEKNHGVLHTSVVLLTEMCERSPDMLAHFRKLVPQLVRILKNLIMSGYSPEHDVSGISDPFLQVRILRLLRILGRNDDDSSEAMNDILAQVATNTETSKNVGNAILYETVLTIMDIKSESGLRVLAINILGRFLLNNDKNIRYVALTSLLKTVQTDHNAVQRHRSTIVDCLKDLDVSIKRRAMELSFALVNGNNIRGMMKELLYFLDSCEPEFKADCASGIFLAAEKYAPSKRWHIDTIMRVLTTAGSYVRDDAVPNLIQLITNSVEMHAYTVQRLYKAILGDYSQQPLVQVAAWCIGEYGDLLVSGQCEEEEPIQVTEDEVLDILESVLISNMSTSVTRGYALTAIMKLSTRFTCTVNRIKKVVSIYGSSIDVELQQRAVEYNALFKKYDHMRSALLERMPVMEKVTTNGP
T1 sequence (Q10567 1-584, chain 2 of 4): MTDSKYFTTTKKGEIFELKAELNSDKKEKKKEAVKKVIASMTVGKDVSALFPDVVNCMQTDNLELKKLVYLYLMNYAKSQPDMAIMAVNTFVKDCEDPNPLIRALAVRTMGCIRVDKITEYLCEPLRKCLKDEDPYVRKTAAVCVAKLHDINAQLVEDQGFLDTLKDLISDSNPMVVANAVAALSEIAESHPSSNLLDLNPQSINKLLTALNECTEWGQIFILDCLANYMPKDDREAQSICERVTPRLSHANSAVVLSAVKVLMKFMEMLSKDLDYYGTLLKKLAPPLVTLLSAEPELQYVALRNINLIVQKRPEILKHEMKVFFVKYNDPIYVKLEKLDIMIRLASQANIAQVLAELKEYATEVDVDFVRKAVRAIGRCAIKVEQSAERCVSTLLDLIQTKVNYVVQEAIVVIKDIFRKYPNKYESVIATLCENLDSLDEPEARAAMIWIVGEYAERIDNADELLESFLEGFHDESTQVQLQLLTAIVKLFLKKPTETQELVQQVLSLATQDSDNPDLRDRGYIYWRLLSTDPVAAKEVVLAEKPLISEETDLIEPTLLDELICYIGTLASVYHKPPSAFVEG
T1 sequence (Q96PC3 whole entry, chain 3 of 4): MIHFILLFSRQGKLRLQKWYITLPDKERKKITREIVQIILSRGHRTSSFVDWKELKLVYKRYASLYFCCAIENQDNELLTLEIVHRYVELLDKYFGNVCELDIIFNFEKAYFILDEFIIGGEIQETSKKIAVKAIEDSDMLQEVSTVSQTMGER
T1 sequence (P35585 whole entry, chain 4 of 4): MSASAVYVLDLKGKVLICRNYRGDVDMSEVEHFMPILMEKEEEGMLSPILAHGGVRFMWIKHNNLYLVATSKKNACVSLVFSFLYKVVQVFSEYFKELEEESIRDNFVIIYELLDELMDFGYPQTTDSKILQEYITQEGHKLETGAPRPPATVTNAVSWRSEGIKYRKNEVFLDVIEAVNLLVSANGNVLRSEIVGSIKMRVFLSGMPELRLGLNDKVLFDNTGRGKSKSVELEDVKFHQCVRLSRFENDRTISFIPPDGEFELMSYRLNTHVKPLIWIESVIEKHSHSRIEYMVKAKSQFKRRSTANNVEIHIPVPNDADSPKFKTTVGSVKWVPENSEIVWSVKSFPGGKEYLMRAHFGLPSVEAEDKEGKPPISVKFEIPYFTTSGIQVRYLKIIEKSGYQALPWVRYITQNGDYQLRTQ

B1: His6-Arf1^Δ1-16 Q71L, GTP-loaded (domain or fragment)
chain: not shown
On to B1, for which, in the assay with GST-AP-1 core, wild type [1], the Kd – broadly, the free concentration of one partner at which half of the binding sites on the other are occupied at equilibrium, for simple one-to-one binding – is 20 ± 0.6 µM. In addition, the “fold increase of Arf1 bound with 20 μM VAMP4 peptide, against no peptide” value with GST-AP-1 core, wild type [2] turned out to be 4 fold.

B2: His-Arf1^Δ16-Q71L W172D (domain or fragment)
chain: not shown
Turning to B2, in the assay with GST-AP-1 core, wild type [3], the binding result is “binds”.

B3: His-Arf1^Δ16-Q71L A136P/A137H (domain or fragment)
chain: not shown
Consider B3, for which the binding result with GST-AP-1 core, wild type [3] was “binds”.
